Test results taken from IntAct's records for PubMed 17721446.

B1: DNA repair protein RAD9 (Saccharomyces cerevisiae), P14737 (parent)
chain: MSGQLVQWKSSPDRVTQSAIKEALHSPLADGDMNEMNVPVDPLENKVNSTNIIEGSPKANPNPVKFMNTSEIFQKSLGLLDESPRHDDELNIEVGDNDRPNANILHNERTPDLDRIANFFKSNRTPGKENLLTKYQSSDLEDTPLMLRKKMTFQTPTDPLEQKTFKKLKSDTGFCYYGEQNDGEENASLEVTEADATFVQMAERSADNYDCALEGIVTPKRYKDELSKSGGMQDERVQKTQIMISAESPNSISSYDKNKITGNGRTTRNVNKVFNNNEDNIGAIEEKNPVKKKSENYSSDDLRERNNQIIQSNESEEINELEKNLNVSGRENDVNNLDIDINSAVSGTPSRNNAEEEMYSSESVNNREPSKKWIFRYSKDKTENNSNRSTQIVNNPRTQEMPLDSISIDTQPLSKSFNTETNNELETQIIVSSLSQGISAQKGPVFHSTGQTEEIKTQIINSPEQNALNATFETPVTLSRINFEPILEVPETSSPSKNTMSKPSNSSPIPKEKDTFNIHEREVETNNVFSNDIQNSSNAATRDDIIIAGSSDFNEQKEITDRIYLQLSGKQISDSGSDETERMSPNELDTKKESTIMSEVELTQELPEVEEQQDLQTSPKKLVVEEETLMEIKKSKGNSLQLHDDNKECNSDKQDGTESLDVALIEHESKGQSSELQKNLMQLFPSESQEIIQNRRTIKRRQKDTIEIGEEEENRSTKTSPTKHLKRNSDLDAASIKREPSCSITIQTGETGSGKDSKEQSYVFPEGIRTADNSFLSKDDIIFGNAVWCQYTWNYKFYPGILLEVDTNQDGCWIYFETGRSLTKDEDIYYLDIRIGDAVTFDGNEYVVVGLECRSHDLNIIRCIRGYDTVHLKKKNASGLLGKRTLIKALSSISLDLSEWAKRAKIILEDNEKNKGDAYRYLRHPIRGRKSMTNVLSPKKHTDDEKDINTHTEVYNNEIESSSEKKEIVKKDSRDALAEHAGAPSLLFSSGEIRTGNVFDKCIFVLTSLFENREELRQTIESQGGTVIESGFSTLFNFTHPLAKSLVNKGNTDNIRELALKLAWKPHSLFADCRFACLITKRHLRSLKYLETLALGWPTLHWKFISACIEKKRIVPHLIYQYLLPSGESFRLSLDSPSKGGIIKSNNIFSFYTQFLRGSNLRDQICGVKKMLNDYIVIVWGRSELDSFVKFAFACLSAGRMLTIDLPNIDVDDTEPLLNALDSLVPRIGSELSNRKLKFLIYANENNGKSQMKLLERLRSQISLKFKKFNYIFHTESKEWLIQTIINEDTGFHDDITDNDIYNTISEVR

Variants of: B1
Details: with h2a1_yeast HTA1, P04911
Sequence of h2a1_yeast HTA1, P04911 (P04911 whole entry): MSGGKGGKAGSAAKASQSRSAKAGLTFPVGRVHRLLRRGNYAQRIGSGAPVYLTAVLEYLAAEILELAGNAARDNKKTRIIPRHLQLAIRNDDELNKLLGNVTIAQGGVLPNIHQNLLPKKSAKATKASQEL

| effect of a mutation on the interaction | Variant |
| --- | --- |
| disrupting interaction | K1088M |
